Data taken from patent US20090042993.

Legend:
[1] = biological target: BACE1 (β-site APP cleaving enzyme 1), native form BACE1WT, P56817
[2] = biological target: BACE1-myc (myc-tagged at the C-terminus version of BACE1), P56817
[3] = biological target: BACE1Ala (BACE1 with the seven acetylated lysine residues mutated to alanine), P56817
Sequence of BACE1Ala (BACE1 with the seven acetylated lysine residues mutated to alanine), P56817 (P56817 other isoform, or with tags, fused parts or gaps, change not shown): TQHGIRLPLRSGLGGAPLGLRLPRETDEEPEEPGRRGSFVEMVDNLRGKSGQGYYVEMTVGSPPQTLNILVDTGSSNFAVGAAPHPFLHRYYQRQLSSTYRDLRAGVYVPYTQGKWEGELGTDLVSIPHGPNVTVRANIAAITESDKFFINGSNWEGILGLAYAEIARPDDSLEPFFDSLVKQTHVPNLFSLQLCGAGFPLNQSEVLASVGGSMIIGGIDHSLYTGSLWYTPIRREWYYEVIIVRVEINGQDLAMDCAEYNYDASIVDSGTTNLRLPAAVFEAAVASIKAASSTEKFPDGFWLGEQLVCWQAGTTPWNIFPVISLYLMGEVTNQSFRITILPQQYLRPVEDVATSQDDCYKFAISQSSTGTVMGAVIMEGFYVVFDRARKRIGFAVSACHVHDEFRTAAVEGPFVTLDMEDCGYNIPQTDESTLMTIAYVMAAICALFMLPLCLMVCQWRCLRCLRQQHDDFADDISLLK

Sequence of BACE1 (β-site APP cleaving enzyme 1), native form BACE1WT, P56817 (P56817 46-501): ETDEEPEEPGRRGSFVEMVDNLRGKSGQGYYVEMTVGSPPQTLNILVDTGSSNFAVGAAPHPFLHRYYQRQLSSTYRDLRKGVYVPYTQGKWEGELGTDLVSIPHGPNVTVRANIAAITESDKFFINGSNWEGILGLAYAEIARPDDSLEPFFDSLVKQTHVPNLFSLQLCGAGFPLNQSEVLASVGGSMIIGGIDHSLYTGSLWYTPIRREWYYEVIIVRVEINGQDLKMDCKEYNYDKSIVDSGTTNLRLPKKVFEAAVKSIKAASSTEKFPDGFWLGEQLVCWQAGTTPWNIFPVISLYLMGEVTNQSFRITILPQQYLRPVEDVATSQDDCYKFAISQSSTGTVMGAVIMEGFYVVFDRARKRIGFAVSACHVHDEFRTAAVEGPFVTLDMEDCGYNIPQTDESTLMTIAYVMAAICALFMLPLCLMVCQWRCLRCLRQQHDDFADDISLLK
Sequence of BACE1-myc (myc-tagged at the C-terminus version of BACE1), P56817 (P56817 46-501): as above

B1: purified recombinant HAT fragment of p300 (histone acetyl transferase domain of recombinant CBP/p300) (protein)
chain: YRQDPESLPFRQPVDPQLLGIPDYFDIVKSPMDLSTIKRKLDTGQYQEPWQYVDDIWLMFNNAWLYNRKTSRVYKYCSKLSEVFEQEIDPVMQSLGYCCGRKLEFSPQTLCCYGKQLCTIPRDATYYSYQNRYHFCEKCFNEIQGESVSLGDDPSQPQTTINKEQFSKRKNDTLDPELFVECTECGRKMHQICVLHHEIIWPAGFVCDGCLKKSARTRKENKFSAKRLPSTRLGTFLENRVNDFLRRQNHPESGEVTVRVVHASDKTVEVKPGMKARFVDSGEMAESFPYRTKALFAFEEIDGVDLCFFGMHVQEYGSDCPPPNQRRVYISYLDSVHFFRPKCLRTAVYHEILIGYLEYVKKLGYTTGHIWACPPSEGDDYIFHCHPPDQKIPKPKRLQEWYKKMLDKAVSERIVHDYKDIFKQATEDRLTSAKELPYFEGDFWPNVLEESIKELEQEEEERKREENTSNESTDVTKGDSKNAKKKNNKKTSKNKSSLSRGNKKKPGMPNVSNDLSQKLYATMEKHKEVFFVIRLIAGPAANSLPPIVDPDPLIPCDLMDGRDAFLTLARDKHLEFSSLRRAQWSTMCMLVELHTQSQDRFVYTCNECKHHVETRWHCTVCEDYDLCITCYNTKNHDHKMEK
With B1 the “in vitro acetylation ([3H]Acetyl-CoA incorporation into BACE1, scintillation counting)” value (shortened to “in vitro acetylation”) [1] was “resulted in acetylation of BACE1WT”, the “in vitro acetylation” value [2] was “BACE1 can be acetylated in vitro, provided that is incubated in the presence of an enzymatically active acetyltransferase” and the “in vitro acetylation” value [3] was “but not BACE1Ala”.
